Data from US20100196390A1 (RINAT NEUROSCIENCE, published 2010).

B1: 16-B2 (Fab, V domains shown)
VH: QVQLVQSGAEVKKPGASVKVSCKASGYTFTNYDIIWVRQAPGQGLEWMGYINPYNDGTKYNEKFKGRVTMTRDTSTSTVYMELSSLRSEDTAVYYCARLLKYRRFRYYAIDYWGQGTTVTVSS
VL: DIQMTQSPSSLSASVGDRVTITCRASENVYSNLAWYQQKPGKAPKLLIYAASNLQSGVPSRFSGSGSGTDFTFTISSLQPEDIATYYCQHFWGSPFTFGQGTKLEIK
notes: Fab
B2: 1-A6 (Fab, V domains shown)
VH: QVQLVQSGAEVKKPGASVKVSCKASGYTFTNYVILWVRQAPGQGLEWMGYINPYNDGTKYNEKFKGRVTMTRDTSTSTVYMELSSLRSEDTAVYYCARLLKYRRHSYYAIDYWGQGTTVTVSS
VL: DIQMTQSPSSLSASVGDRVTITCRASENVYSNLAWYQQKPGKAPKLLIYAASNLQSGVPSRFSGSGSGTDFTFTISSLQPEDIATYYCQHFWKSPFTFGQGTKLEIK
notes: Fab
B3: 1-A11 (Fab, V domains shown)
VH: QVQLVQSGAEVKKPGASVKVSCKASGYTFTNYVILWVRQAPGQGLEWMGYINPYNDGTKYNEKFKGRVTMTRDTSTSTVYMELSSLRSEDTAVYYCARLLKYRRFSYYAIDYWGQGTTVTVSS
VL: DIQMTQSPSSLSASVGDRVTITCRASENVYSNLAWYQQKPGKAPKLLIYAASNLQSGVPSRFSGSGSGTDFTFTISSLQPEDIATYYCQHFWYSPFTFGQGTKLEIK
notes: Fab
B4: 1-B10 (Fab, V domains shown)
VH: QVQLVQSGAEVKKPGASVKVSCKASGYTFTNYVILWVRQAPGQGLEWMGYINPYNDGTKYNEKFKGRVTMTRDTSTSTVYMELSSLRSEDTAVYYCARLLKYRRFSFYAIDYWGQGTTVTVSS
VL: DIQMTQSPSSLSASVGDRVTITCRASENVYSNLAWYQQKPGKAPKLLIYAASNLQSGVPSRFSGSGSGTDFTFTISSLQPEDIATYYCQGFWYSPFTFGQGTKLEIK
notes: Fab
B5: 1-B11 (Fab, V domains shown)
VH: QVQLVQSGAEVKKPGASVKVSCKASGYTFTNYVILWVRQAPGQGLEWMGYINPYNDGTKYNEKFKGRVTMTRDTSTSTVYMELSSLRSEDTAVYYCARLLKYRRFSYYAIDYWGQGTTVTVSS
VL: DIQMTQSPSSLSASVGDRVTITCRASENVYSNLAWYQQKPGKAPKLLIYAASNLQSGVPSRFSGSGSGTDFTFTISSLQPEDIATYYCQNFWYSPFTFGQGTKLEIK
notes: Fab
B6: 1-D3 (Fab, V domains shown)
VH: QVQLVQSGAEVKKPGASVKVSCKASGYTFTNYVILWVRQAPGQGLEWMGYINPYNDGTKYNEKFKGRVTMTRDTSTSTVYMELSSLRSEDTAVYYCARLLKYRRFSYYAIDEWGQGTTVTVSS
VL: DIQMTQSPSSLSASVGDRVTITCRASENVYSNLAWYQQKPGKAPKLLIYAASNLQSGVPSRFSGSGSGTDFTFTISSLQPEDIATYYCQHFWYSPFTFGQGTKLEIK
notes: Fab
B7: 1-E9 (Fab, V domains shown)
VH: QVQLVQSGAEVKKPGASVKVSCKASGYTFTNYVILWVRQAPGQGLEWMGYINPYNDGTKYNEKFKGRVTMTRDTSTSTVYMELSSLRSEDTAVYYCARLLKYRRMSYYAIDYWGQGTTVTVSS
VL: DIQMTQSPSSLSASVGDRVTITCRASENVYSNLAWYQQKPGKAPKLLIYAASNLQSGVPSRFSGSGSGTDFTFTISSLQPEDIATYYCQHFWYSPFTFGQGTKLEIK
notes: Fab
B8: 1-G12 (Fab, V domains shown)
VH: QVQLVQSGAEVKKPGASVKVSCKASGYTFTNYVILWVRQAPGQGLEWMGYINPYNDGTKYNEKFKGRVTMTRDTSTSTVYMELSSLRSEDTAVYYCARLLKYRRFSYYAIDYWGQGTTVTVSS
VL: DIQMTQSPSSLSASVGDRVTITCRASENVYSNLAWYQQKPGKAPKLLIYAASNLQSGVPSRFSGSGSGTDFTFTISSLQPEDIATYYCQHFWYSPFGFGQGTKLEIK
notes: Fab
B9: 1-H6 (Fab, V domains shown)
VH: QVQLVQSGAEVKKPGASVKVSCKASGYTFTNYVILWVRQAPGQGLEWMGYINPYNDGTKYNEKFKGRVTMTRDTSTSTVYMELSSLRSEDTAVYYCARLLKYRRFSYYAIDYWGQGTTVTVSS
VL: DIQMTQSPSSLSASVGDRVTITCRASENVYSNLAWYQQKPGKAPKLLIYAASNLQSGVPSRFSGSGSGTDFTFTISSLQPEDIATYYCQHFWWSPFTFGQGTKLEIK
notes: Fab
B10: 2-A2 (Fab, V domains shown)
VH: QVQLVQSGAEVKKPGASVKVSCKASGYTFTNYVILWVRQAPGQGLEWMGYINPYNDGTKYNEKFKGRVTMTRDTSTSTVYMELSSLRSEDTAVYYCARLLKYRRLSYYAIDYWGQGTTVTVSS
VL: DIQMTQSPSSLSASVGDRVTITCRASENVYSNLAWYQQKPGKAPKLLIYAASNLQSGVPSRFSGSGSGTDFTFTISSLQPEDIATYYCQHFWYSPFTFGQGTKLEIK
notes: Fab
B11: 2-B1 (Fab, V domains shown)
VH: QVQLVQSGAEVKKPGASVKVSCKASGYTFTNYVILWVRQAPGQGLEWMGYINPYNDGTKYNEKFKGRVTMTRDTSTSTVYMELSSLRSEDTAVYYCARLLKYRRFSYYAIDYWGQGTTVTVSS
VL: DIQMTQSPSSLSASVGDRVTITCRASENVYSNLAWYQQKPGKAPKLLIYAASNLQSGVPSRFSGSGSGTDFTFTISSLQPEDIATYYCQNFWYSPFTFGQGTKLEIK
notes: Fab
B12: 2-F6 (Fab, V domains shown)
VH: QVQLVQSGAEVKKPGASVKVSCKASGYTFTNYVILWVRQAPGQGLEWMGYINPYNDGTKYNEKFKGRVTMTRDTSTSTVYMELSSLRSEDTAVYYCARLLKYRRFRYYAIDYWGQGTTVTVSS
VL: DIQMTQSPSSLSASVGDRVTITCRASENVYSNLAWYQQKPGKAPKLLIYAASNLQSGVPSRFSGSGSGTDFTFTISSLQPEDIATYYCQHFWYSPFTFGQGTKLEIK
notes: Fab
B13: 2-F10 (Fab, V domains shown)
VH: QVQLVQSGAEVKKPGASVKVSCKASGYTFTNYVILWVRQAPGQGLEWMGYINPYNDGTKYNEKFKGRVTMTRDTSTSTVYMELSSLRSEDTAVYYCARLLKYRRFSYYAIDYWGQGTTVTVSS
VL: DIQMTQSPSSLSASVGDRVTITCRASENVYSNLAWYQQKPGKAPKLLIYAASNLQSGVPSRFSGSGSGTDFTFTISSLQPEDIATYYCQVFWYSPFTFGQGTKLEIK
notes: Fab
B14: 2-G12 (Fab, V domains shown)
VH: QVQLVQSGAEVKKPGASVKVSCKASGYTFTNYVILWVRQAPGQGLEWMGYINPYNDGTKYNEKFKGRVTMTRDTSTSTVYMELSSLRSEDTAVYYCARLLKYRRFRYYAIDYWGQGTTVTVSS
VL: DIQMTQSPSSLSASVGDRVTITCRASENVYSNLAWYQQKPGKAPKLLIYAASNLQSGVPSRFSGSGSGTDFTFTISSLQPEDIATYYCQHFWYRPFTFGQGTKLEIK
notes: Fab
B15: 3-B11 (Fab, V domains shown)
VH: QVQLVQSGAEVKKPGASVKVSCKASGYTFTNYVILWVRQAPGQGLEWMGYINPYNDGTKYNEKFKGRVTMTRDTSTSTVYMELSSLRSEDTAVYYCARLLKYRRFRYYAIDYWGQGTTVTVSS
VL: DIQMTQSPSSLSASVGDRVTITCRASENVYSNLAWYQQKPGKAPKLLIYAASNLQSGVPSRFSGSGSGTDFTFTISSLQPEDIATYYCQHFWYSGFTFGQGTKLEIK
notes: Fab
B16: 3-C12 (Fab, V domains shown)
VH: QVQLVQSGAEVKKPGASVKVSCKASGYTFTNYVILWVRQAPGQGLEWMGYINPYNDGTKYNEKFKGRVTMTRDTSTSTVYMELSSLRSEDTAVYYCARLLKYRRFSYYAIDYWGQGTTVTVSS
VL: DIQMTQSPSSLSASVGDRVTITCRASENVYSNLAWYQQKPGKAPKLLIYAASNLQSGVPSRFSGSGSGTDFTFTISSLQPEDIATYYCQHFWGSPFTFGQGTKLEIK
notes: Fab

The binders below were run against TrkB (Homo sapiens (Human), UniProt Q16620 32-430) (assay: koff of Fab at 25 C; T1/2=Log2/koff).
TrkB, sequence (Q16620 32-430 limits assumed): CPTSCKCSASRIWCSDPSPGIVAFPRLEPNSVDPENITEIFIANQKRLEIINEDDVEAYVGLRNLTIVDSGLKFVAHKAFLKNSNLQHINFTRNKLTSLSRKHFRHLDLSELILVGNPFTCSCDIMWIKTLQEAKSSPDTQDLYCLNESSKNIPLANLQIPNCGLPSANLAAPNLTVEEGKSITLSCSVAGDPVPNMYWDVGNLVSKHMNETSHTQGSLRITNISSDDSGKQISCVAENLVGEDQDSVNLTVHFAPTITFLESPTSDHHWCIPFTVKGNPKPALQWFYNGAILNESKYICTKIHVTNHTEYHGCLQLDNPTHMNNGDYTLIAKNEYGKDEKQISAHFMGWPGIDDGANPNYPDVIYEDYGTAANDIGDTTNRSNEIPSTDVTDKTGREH
How it was run: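 Monovalent Fab fragments were tested at 25° C by surface plasmon resonance on a Biacore instrument, against TrkB extracellular-domain monomer amine-coupled to the chip at low capacity. Fabs were injected low to high as a 3-fold serial dilution from 100 nM for 84 sec, with a 10 minute dissociation after the top sample. The dissociation half-life was calculated from koff, which was fitted to a Langmuir binding model in BIAevaluation. The formula used was T1/2 = Log 2/koff.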
Binder B1 has a T1/2 of 300 s.
Work on B2 yielded a T1/2 of 25.2 s.
In the case of B3, the T1/2 is reported as 64.8 s.
Work on B4 yielded a T1/2 of 33 s.
Work on B5 yielded a T1/2 of 43.2 s.
With B6 the T1/2 was 55.2 s.
In the case of B7, the T1/2 is reported as 62.4 s.
B8 showed a T1/2 of 24 s.
Work on B9 yielded a T1/2 of 37.2 s.
B10 was tested, and the T1/2 was 34.2 s.
Work on B11 yielded a T1/2 of 19.2 s.
B12 showed a T1/2 of 13.8 s.
Binder B13 has a T1/2 of 28.8 s.
For B14, the T1/2 was 18 s.
For B15, the T1/2 was 52.2 s.
B16 was tested, and the T1/2 was 50.4 s.
